Data taken from patent US20150247135A1 (LIGACEPT, published 2015).

Columns and labels:
[1] = biological target: T1, E4-Fc (amino acids 1-497 of ErbB4 joined to the IgG2Fc portion) (UniProt Q15303 26-522; P01859 104-326 = IgG part); assay: trap coated on 96 well plate, varying HRG1β, detection antibody; Std Error Kd 3.128 nM
T1 construct: range 1-497;domain: IgG2Fc; Control trap; The 1-497 range counts on mature ErbB4 without the signal peptide; also called ErbB4-IgGFc
Experimental: (§1) Purified trap molecules were coated on 96 well plates and incubated with either TGFα or HRG1β. Then detection antibodies against TGFα or HRG1β were used to measure the affinity (Kd) and amount of bound ligand (Bmax).
(§2) Traps were coated on 96 well plates and incubated with varying concentrations of either TGFα or HRG1β. Detection antibodies against TGFα or HRG1β were used to measure the affinity (Kd) and amount of bound ligand (Bmax).

[2] = biological target: T1, E4-Fc (amino acids 1-497 of ErbB4 …); assay: trap coated on 96 well plate, varying HRG1β, detection antibody; Std Error Kd 2.92 nM
Experimental: as §1, §2

T1 sequence (Q15303 other isoform, or with tags, fused parts or gaps limits assumed): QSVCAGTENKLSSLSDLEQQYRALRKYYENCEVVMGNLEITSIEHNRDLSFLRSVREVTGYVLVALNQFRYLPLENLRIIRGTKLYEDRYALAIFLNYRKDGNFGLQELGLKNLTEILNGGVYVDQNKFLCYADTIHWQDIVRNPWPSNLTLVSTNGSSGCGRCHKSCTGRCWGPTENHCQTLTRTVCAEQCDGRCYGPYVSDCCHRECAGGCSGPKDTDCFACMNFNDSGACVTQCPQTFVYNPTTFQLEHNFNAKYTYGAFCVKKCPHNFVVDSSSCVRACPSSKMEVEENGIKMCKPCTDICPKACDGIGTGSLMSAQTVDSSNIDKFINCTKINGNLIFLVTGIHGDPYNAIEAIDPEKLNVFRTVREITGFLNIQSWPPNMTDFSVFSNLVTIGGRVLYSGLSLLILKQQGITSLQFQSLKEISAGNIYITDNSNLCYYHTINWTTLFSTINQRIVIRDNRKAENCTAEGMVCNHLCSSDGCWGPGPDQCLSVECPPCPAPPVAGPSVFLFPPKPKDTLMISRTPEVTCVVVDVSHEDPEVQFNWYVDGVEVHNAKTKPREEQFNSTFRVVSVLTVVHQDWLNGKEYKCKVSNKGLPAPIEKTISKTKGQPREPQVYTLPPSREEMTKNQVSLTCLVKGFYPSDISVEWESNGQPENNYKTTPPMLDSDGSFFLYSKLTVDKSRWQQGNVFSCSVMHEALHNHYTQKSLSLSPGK

Kd [1]: 14.5 nM
Kd [2]: 21.2 nM
B1: HRG1β (ligand, UniProt Q02297-6 177-241, looked up)
chain: SHLVKCAEKEKTFCVNGGECFMVKDLSNPSRYLCKCPNEFTGDRCQNYVMASFYKHLGIEFMEAE
notes: Soluble ligand incubated with the coated traps; also called heregulin
